Laboratory results published in IntAct's records for PubMed 29039417.

B1: BBSome complex member BBS5 (Homo sapiens), Q8N3I7 (parent)
chain: MSVLDALWEDRDVRFDLSAQQMKTRPGEVLIDCLDSIEDTKGNNGDRGRLLVTNLRILWHSLALSRVNVSVGYNCILNITTRTANSKLRGQTEALYILTKCNSTRFEFIFTNLVPGSPRLFTSVMAVHRAYETSKMYRDFKLRSALIQNKQLRLLPQEHVYDKINGVWNLSSDQGNLGTFFITNVRIVWHANMNDSFNVSIPYLQIRSIKIRDSKFGLALVIESSQQSGGYVLGFKIDPVEKLQESVKEINSLHKVYSASPIFGVDYEMEEKPQPLEALTVEQIQDDVEIDSDGHTDAFVAYFADGNKQQDREPVFSEELGLAIEKLKDGFTLQGLWEVMS
partner: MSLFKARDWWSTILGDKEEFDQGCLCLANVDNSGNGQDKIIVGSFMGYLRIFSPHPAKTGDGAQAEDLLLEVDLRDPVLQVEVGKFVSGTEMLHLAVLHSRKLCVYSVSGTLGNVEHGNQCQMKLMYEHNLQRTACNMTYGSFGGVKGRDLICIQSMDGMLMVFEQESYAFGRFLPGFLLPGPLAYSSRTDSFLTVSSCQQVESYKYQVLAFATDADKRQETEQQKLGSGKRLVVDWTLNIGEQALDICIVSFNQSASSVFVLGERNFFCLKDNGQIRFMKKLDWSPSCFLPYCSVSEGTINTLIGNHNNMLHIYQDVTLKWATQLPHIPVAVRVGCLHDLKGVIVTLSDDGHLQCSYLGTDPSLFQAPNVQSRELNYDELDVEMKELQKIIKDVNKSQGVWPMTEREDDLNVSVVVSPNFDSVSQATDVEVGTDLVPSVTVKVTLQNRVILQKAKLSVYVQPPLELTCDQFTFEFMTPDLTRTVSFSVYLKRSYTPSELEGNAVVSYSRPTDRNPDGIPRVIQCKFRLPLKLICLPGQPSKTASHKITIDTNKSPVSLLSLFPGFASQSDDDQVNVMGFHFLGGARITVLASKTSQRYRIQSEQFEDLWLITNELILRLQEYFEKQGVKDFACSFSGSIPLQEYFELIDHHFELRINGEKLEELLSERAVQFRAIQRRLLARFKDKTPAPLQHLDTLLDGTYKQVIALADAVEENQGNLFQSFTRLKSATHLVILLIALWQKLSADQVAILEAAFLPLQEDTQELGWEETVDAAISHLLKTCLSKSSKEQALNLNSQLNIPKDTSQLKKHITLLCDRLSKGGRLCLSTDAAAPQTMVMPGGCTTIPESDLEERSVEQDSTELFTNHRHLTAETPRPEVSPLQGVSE

Variants of: B1
Settings: with pthb1_human BBS9, Q3SYG4

| effect of a mutation on the interaction | Variant |
| --- | --- |
| with no effect | C75E |
| with no effect | C75A |
| with no effect | L77K |
| with no effect | N85E |
| with no effect | N85A |
| with no effect | I79E |
| with no effect | S103A |
| with no effect | S103E |
| disrupting interaction strength | L95E |
| with no effect | L95A |
| with no effect | T83K |
| disrupting interaction strength | T83A |
| with no effect | K87A |
| with no effect | K87E |
| with no effect | K100E |
| with no effect | K100A |
| with no effect | N102K |
| with no effect | N102A |
| with no effect | G90E |
| disrupting interaction strength | T104I |
| with no effect | T104A |
| with no effect | S86K |
| with no effect | S86E |
| with no effect | S86A |

| effect of a mutation on the interaction | Variant |
| --- | --- |
| with no effect | N74E |
| with no effect | N74A |
| with no effect | N74K |
| with no effect | T81E |
| with no effect | T81A |
| with no effect | T81K |
| disrupting interaction strength | I97K |
| with no effect | T92E |
| with no effect | T92A |
| with no effect | R82A |
| with no effect | Q91A |
| with no effect | L88A |
| with no effect | L88K |
| with no effect | C101A |
| with no effect | C101E |
| with no effect | C101K |
| with no effect | E93K |
| with no effect | N78E |
| with no effect | N78A |
| disrupting interaction strength | I76E |
| disrupting interaction strength | I76T |
| with no effect | T99K |
| disrupting interaction strength | T99E |
| with no effect | R89K |

Continued, variant first:

| Variant | effect of a mutation on the interaction |
| --- | --- |
| Y96E | with no effect |
| Y96K | with no effect |
| Y96A | with no effect |
| C75K | with no effect |
| L77E | with no effect |
| L77A | with no effect |
| N85K | with no effect |
| I79A | with no effect |
| I79K | with no effect |
| T80E | with no effect |
| T80K | with no effect |
| T80I | disrupting interaction strength |
| T80A | disrupting interaction strength |
| A84E | with no effect |
| A84K | with no effect |
| S103K | with no effect |
| L95K | with no effect |
| T83E | with no effect |
| N102E | with no effect |
| G90A | with no effect |
| G90K | with no effect |

| Variant | effect of a mutation on the interaction |
| --- | --- |
| T104E | with no effect |
| A94E | with no effect |
| A94K | with no effect |
| I97A | with no effect |
| I97E | with no effect |
| T92K | with no effect |
| R82E | with no effect |
| R82K | with no effect |
| Q91K | with no effect |
| Q91E | with no effect |
| L88E | with no effect |
| E93A | with no effect |
| N78K | with no effect |
| I76K | with no effect |
| I76A | with no effect |
| L98E | with no effect |
| L98K | with no effect |
| L98A | with no effect |
| T99A | with no effect |
| R89E | with no effect |
| R89A | with no effect |
